Reference: the Immune Epitope Database (IEDB)

Columns and labels:
HLA-A*31:01 [1] = assay: IEDB peptide-MHC binding, purified MHC/direct/fluorescence; filed as Kd, often an IC50 or EC50 that approximates it; ≥ and ≤ were set here for values at or beyond the usual limits of such assays
HLA-A*02:01 [2] = assay: as above
HLA-B*46:01 [3] = assay: as above
HLA-B*40:01 = assay: as above
HLA-A*69:01 [4] = assay: as above
HLA-B*07:02 = assay: as above
HLA-A*24:02 = assay: as above
HLA-B*08:02 = assay: as above
HLA-A*03:01 [5] = assay: as above
HLA-B*58:01 = assay: as above
HLA-B*15:01 [6] = assay: as above
HLA-B*27:05 = assay: as above
HLA-B*44:02 = assay: as above
HLA-B*18:01 [7] = assay: as above
HLA-A*11:01 = assay: as above
HLA-A*01:01 = assay: as above
HLA-A*02:16 = assay: IEDB peptide-MHC binding, purified MHC/competitive/fluorescence; filed as Kd, often an IC50 or EC50 that approximates it; ≥ and ≤ were set here for values at or beyond the usual limits of such assays
HLA-B*51:01 [8] = assay: as above
HLA-A*02:11 = assay: as above
HLA-A*02:01 [9] = assay: as above
HLA-A*24:03 = assay: as above
HLA-B*46:01 [10] = assay: as above
HLA-A*69:01 [11] = assay: as above
HLA-B*39:01 = assay: as above
HLA-A*03:01 [12] = assay: as above; details: source organism: Entamoeba histolytica HM-1:IMSS
HLA-B*27:03 = assay: as above
HLA-A*02:12 [13] = assay: as above
HLA-A*29:02 = assay: as above
HLA-B*15:01 [14] = assay: as above
HLA-A*68:02 = assay: as above
HLA-B*57:01 = assay: as above
HLA-B*18:01 [15] = assay: as above
HLA-A*02:03 = assay: as above
HLA-A*26:01 = assay: as above
HLA-A*02:19 = assay: as above
HLA-B*15:17 = assay: as above; details: source organism: Entamoeba histolytica HM-1:IMSS
HLA-B*51:01 [16] = assay: IEDB peptide-MHC binding, purified MHC/direct/fluorescence; filed as Kd, often an IC50 or EC50 that approximates it; ≥ and ≤ were set here for values at or beyond the usual limits of such assays
HLA-C*03:03 = assay: as above
HLA-B*08:01 = assay: as above; details: source organism: Vibrio parahaemolyticus AQ3810
HLA-B*15:09 = assay: as above
HLA-A*31:01 [17] = assay: IEDB peptide-MHC binding, purified MHC/competitive/fluorescence; filed as Kd, often an IC50 or EC50 that approximates it; ≥ and ≤ were set here for values at or beyond the usual limits of such assays; details: source organism: Cryptosporidium parvum Iowa II
HLA-C*12:03 = assay: IEDB peptide-MHC binding, purified MHC/direct/fluorescence; filed as Kd, often an IC50 or EC50 that approximates it; ≥ and ≤ were set here for values at or beyond the usual limits of such assays; details: source organism: human gammaherpesvirus 4
HLA-A*02:12 [18] = assay: as above; details: source organism: Ravn virus - Ravn, Kenya, 1987
[19] = source organism: Coxiella burnetii
[20] = source organism: Entamoeba histolytica HM-1:IMSS
[21] = source organism: dengue virus type 4
[22] = source organism: Vibrio parahaemolyticus
[23] = source organism: Vibrio parahaemolyticus AQ3810
[24] = source organism: Rickettsia bellii
[25] = source organism: Cryptosporidium parvum Iowa II
[26] = source organism: Marburg virus - Musoke, Kenya, 1980

With AISRLRTQK the Kd (HLA-A*31:01 [1]; [19]) was 0.344 µM, the Kd (HLA-A*02:01 [2]; [19]) was ≥ 20 µM and the Kd (HLA-B*46:01 [3]; [19]) was ≥ 20 µM. The Kd (HLA-B*40:01; [19]) was ≥ 20 µM, the Kd (HLA-A*69:01 [4]; [19]) was ≥ 20 µM and the Kd (HLA-B*07:02; [19]) was ≥ 20 µM. The Kd (HLA-A*24:02; [19]) was ≥ 20 µM, the Kd (HLA-B*08:02; source organism: Coxiella burnetii Q321) was ≥ 20 µM and the Kd (HLA-A*03:01 [5]; [19]) was 0.386 µM. The Kd (HLA-B*58:01; [19]) was ≥ 20 µM, the Kd (HLA-B*15:01 [6]; [19]) was ≥ 20 µM and the Kd (HLA-B*27:05; [19]) was ≥ 20 µM. For the same sequence, the Kd (HLA-B*44:02; [19]) was ≥ 20 µM, the Kd (HLA-B*18:01 [7]; [19]) was ≥ 20 µM and the Kd (HLA-A*11:01; [19]) was 0.0995 µM. The Kd (HLA-A*01:01; [19]) was ≥ 20 µM.
With IEAKINVAD the Kd (HLA-A*02:16; [20]) was ≥ 20 µM, the Kd (HLA-B*51:01 [8]; [20]) was ≥ 20 µM and the Kd (HLA-A*02:11; [20]) was ≥ 20 µM. For the same sequence, the Kd (HLA-A*02:01 [9]; [20]) was ≥ 20 µM, the Kd (HLA-A*24:03; [20]) was ≥ 20 µM and the Kd (HLA-B*46:01 [10]; [20]) was ≥ 20 µM. For the same sequence, the Kd (HLA-A*69:01 [11]; [20]) was ≥ 20 µM, the Kd (HLA-B*39:01; [20]) was ≥ 20 µM and the Kd (HLA-A*03:01 [12]) was ≥ 20 µM. The Kd (HLA-B*27:03; [20]) was ≥ 20 µM, the Kd (HLA-A*02:12 [13]; [20]) was ≥ 20 µM and the Kd (HLA-A*29:02; [20]) was ≥ 20 µM. The Kd (HLA-B*15:01 [14]; [20]) was ≥ 20 µM, the Kd (HLA-A*68:02; [20]) was ≥ 20 µM and the Kd (HLA-B*57:01; [20]) was ≥ 20 µM. For the same sequence, the Kd (HLA-B*18:01 [15]; [20]) was 0.389 µM, the Kd (HLA-A*02:03; [20]) was ≥ 20 µM and the Kd (HLA-A*26:01; [20]) was ≥ 20 µM. The Kd (HLA-A*02:19; [20]) was ≥ 20 µM and the Kd (HLA-B*15:17) was ≥ 20 µM.
In the case of ILRNPGFAL, the Kd (HLA-B*51:01 [16]; [21]) is reported as ≥ 20 µM and the Kd (HLA-C*03:03; [21]) is reported as 0.211 µM.
In the case of LANYAFFAI, the Kd (HLA-B*51:01 [16]; source organism: Streptococcus pneumoniae) is reported as 0.23 µM and the Kd (HLA-C*03:03; source organism: Streptococcus pneumoniae R6) is reported as ≤ 0.001 µM.
For MLDQFGVSY, the Kd (HLA-A*31:01 [1]; [22]) was ≥ 20 µM, the Kd (HLA-A*02:01 [2]; [22]) was ≥ 20 µM and the Kd (HLA-B*40:01; [22]) was ≥ 20 µM. The Kd (HLA-A*69:01 [4]; [22]) was ≥ 20 µM, the Kd (HLA-B*07:02; [22]) was ≥ 20 µM and the Kd (HLA-A*24:02; [22]) was ≥ 20 µM. For the same sequence, the Kd (HLA-B*08:02; [23]) was ≥ 20 µM, the Kd (HLA-A*03:01 [5]; [22]) was ≥ 20 µM and the Kd (HLA-B*58:01; [22]) was ≥ 20 µM. For the same sequence, the Kd (HLA-B*08:01) was ≥ 20 µM, the Kd (HLA-B*15:01 [6]; [22]) was 0.143 µM and the Kd (HLA-B*15:09; [23]) was ≥ 20 µM. The Kd (HLA-B*27:05; [22]) was ≥ 20 µM, the Kd (HLA-B*44:02; [22]) was ≥ 20 µM and the Kd (HLA-A*11:01; [22]) was ≥ 20 µM. The Kd (HLA-A*01:01; [22]) was 0.021 µM.
In the case of NIDPEHLDY, the Kd (HLA-A*31:01 [1]; [24]) is reported as ≥ 20 µM, the Kd (HLA-A*02:01 [2]; [24]) is reported as ≥ 20 µM and the Kd (HLA-B*46:01 [3]; [24]) is reported as ≥ 20 µM. For the same sequence, the Kd (HLA-B*40:01; [24]) was ≥ 20 µM, the Kd (HLA-A*69:01 [4]; [24]) was ≥ 20 µM and the Kd (HLA-B*07:02; [24]) was ≥ 20 µM. The Kd (HLA-A*24:02; [24]) was ≥ 20 µM, the Kd (HLA-A*03:01 [5]; [24]) was ≥ 20 µM and the Kd (HLA-B*58:01; [24]) was ≥ 20 µM. The Kd (HLA-B*15:01 [6]; [24]) was ≥ 20 µM, the Kd (HLA-B*15:09; source organism: Rickettsia typhi str. Wilmington) was ≥ 20 µM and the Kd (HLA-B*27:05; [24]) was ≥ 20 µM. For the same sequence, the Kd (HLA-B*44:02; [24]) was ≥ 20 µM, the Kd (HLA-B*18:01 [7]; [24]) was ≥ 20 µM and the Kd (HLA-A*11:01; [24]) was ≥ 20 µM. For the same sequence, the Kd (HLA-A*01:01; [24]) was 0.0326 µM.
For RGRKPIFRK, the Kd (HLA-A*02:16; [25]) was ≥ 20 µM, the Kd (HLA-B*51:01 [8]; [25]) was ≥ 20 µM and the Kd (HLA-A*31:01 [17]) was 0.0532 µM. The Kd (HLA-A*02:11; [25]) was ≥ 20 µM, the Kd (HLA-A*02:01 [9]; [25]) was ≥ 20 µM and the Kd (HLA-A*24:03; [25]) was ≥ 20 µM. For the same sequence, the Kd (HLA-B*46:01 [10]; [25]) was ≥ 20 µM, the Kd (HLA-A*69:01 [11]; [25]) was ≥ 20 µM and the Kd (HLA-B*39:01; [25]) was ≥ 20 µM. For the same sequence, the Kd (HLA-B*27:03; [25]) was ≥ 20 µM, the Kd (HLA-A*02:12 [13]; [25]) was ≥ 20 µM and the Kd (HLA-A*29:02; [25]) was ≥ 20 µM. For the same sequence, the Kd (HLA-B*15:01 [14]; [25]) was ≥ 20 µM, the Kd (HLA-A*68:02; [25]) was ≥ 20 µM and the Kd (HLA-B*57:01; [25]) was ≥ 20 µM. For the same sequence, the Kd (HLA-B*18:01 [15]; [25]) was ≥ 20 µM, the Kd (HLA-A*02:03; [25]) was ≥ 20 µM and the Kd (HLA-A*26:01; [25]) was ≥ 20 µM. The Kd (HLA-A*02:19; [25]) was ≥ 20 µM.
For SQAPLPCVL, the Kd (HLA-C*12:03) was 0.554 µM.
Sequence YMQQVSEGL has a Kd (HLA-A*02:01 [2]; [26]) of 0.153 µM, a Kd (HLA-A*69:01 [4]; [26]) of 1.38 µM and a Kd (HLA-C*03:03; source organism: Orthomarburgvirus marburgense) of 0.498 µM. For the same sequence, the Kd (HLA-A*02:12 [18]) was 0.002 µM.
